Source: patent publication US20120324606A1

Tests used:
[1] = molecular target: BBMV proteins (receptor binding sites) in brush border membrane vesicles from European corn borer (ECB; Ostrinia nubilalis) larval midgut; experiment: homologous competition: unlabeled Cry1Ab against 0.5 nM 125I Cry1Ab on ECB BBMVs
[2] = molecular target: BBMV proteins (receptor binding sites) in brush border membrane vesicles from fall armyworm (FAW; Spodoptera frugiperda) larval midgut; experiment: homologous competition: unlabeled Cry1Ab against 0.5 nM 125I Cry1Ab on FAW BBMVs
[3] = molecular target: BBMV proteins (receptor binding sites) in brush border membrane vesicles from fall armyworm (FAW; Spodoptera frugiperda) larval midgut; experiment: heterologous competition: unlabeled Cry1Ab against 0.5 nM 125I Cry1Be on FAW BBMVs
[4] = molecular target: BBMV proteins (receptor binding sites) in brush border membrane vesicles from fall armyworm (FAW; Spodoptera frugiperda) larval midgut; experiment: heterologous competition: unlabeled Cry1Ab against 0.5 nM 125I Cry1Be on FAW BBMVs; reference is homologous Cry1Be

Cry1Ab insecticidal protein (purified truncated Cry toxin) (from UniProt P0A370 29-612) (ligand)
IC50 [1]: 0.5 nM
IC50 [2]: 0.3 nM
IC50 [3]: 1000 nM
fold lower affinity to compete for the binding of Cry1Be [4]: 500 fold
